Reference: patent US20050042213
Where two headings read alike, the source gives them in different places.

T1: pro-heparanase (H60), purified recombinant human 60 kDa latent heparanase
T1 chain: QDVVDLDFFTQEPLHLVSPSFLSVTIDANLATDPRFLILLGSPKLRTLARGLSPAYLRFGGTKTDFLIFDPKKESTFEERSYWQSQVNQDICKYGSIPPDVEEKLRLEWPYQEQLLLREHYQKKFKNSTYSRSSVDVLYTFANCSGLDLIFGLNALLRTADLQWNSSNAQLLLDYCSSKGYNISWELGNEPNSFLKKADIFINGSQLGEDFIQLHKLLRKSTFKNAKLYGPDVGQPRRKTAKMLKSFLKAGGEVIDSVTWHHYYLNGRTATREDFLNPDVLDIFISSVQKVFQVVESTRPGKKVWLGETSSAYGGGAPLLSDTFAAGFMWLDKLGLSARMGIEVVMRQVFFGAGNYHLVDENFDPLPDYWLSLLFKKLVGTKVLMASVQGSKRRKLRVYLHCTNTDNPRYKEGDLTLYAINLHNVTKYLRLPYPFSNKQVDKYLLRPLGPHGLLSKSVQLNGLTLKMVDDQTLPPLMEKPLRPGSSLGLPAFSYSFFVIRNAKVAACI

T2: pro-heparanase (H60), purified recombinant human 60 kDa latent heparanase
T2 sequence: T1 chain

B1: elastase from human neutrophils (Calbiochem, 324681) (protein)
chain: IVGGRRARPHAWPFMVSLQLRGGHFCGATLIAPNFVMSAAHCVANVNVRAVRVVLGAHNLSRREPTRQVFAVQRIFENGYDPVNLLNDIVILQLNGSATINANVQVAQLPAQGRRLGNGVQCLAMGWGLLGRNRGIASVLQELNVTVVTSLCRRSNVCTLVRGRQAGVCFGDSGSPLVCNGLIHGIASFVRGGCASGLYPDAFAPVAQFVNWIDSIIQ
B2: cathepsin G (Sigma, C4428) (enzyme, UniProt P08311 21-244, looked up, species assumed)
Cathepsin G: IIGGRESRPHSRPYMAYLQIQSPAGQSRCGGFLVREDFVLTAAHCWGSNINVTLGAHNIQRRENTQQHITARRAIRHPQYNQRTIQNDIMLLQLSRRVRRNRNVNPVALPRAQEGLRPGTLCTVAGWGRVSMRRGTDTLREVQLRVQRDRQCLRIFGSYDPRRQICVGDRRERKAAFKGDSGGPLLCNNVAHGIVSYGKSSGVPPEVFTRVSSFLPWIRTTMRS

How the values were obtained:
[1] = target: T1, pro-heparanase (H60), purified …
[2] = test system: T2, pro-heparanase (H60), purified recombinant human 60 kDa latent heparanase; remark: listed apart in the source

Protein | heparanase activity after treatment (DMB assay) [1] | processing of pro-heparanase in vitro (Western blot) [1] | heparanase activity after treatment (DMB assay) [2] | processing of pro-heparanase in vitro (Western blot) [2]
B1 | treatment of the pro heparanase with cathepsin G or elastase activated the H60 | cathepsin G (FIG. 18) and elastase (FIG. 5), both serine proteases, cleave the pro-heparanase in-vitro, at or near the N-terminus of the H45 |  | 
B2 |  |  | treatment of the pro heparanase with cathepsin G or elastase activated the H60 | cathepsin G (FIG. 18) and elastase (FIG. 5), both serine proteases, cleave the pro-heparanase in-vitro, at or near the N-terminus of the H45
